Molecular target: insulin receptor of isolated rat adipocytes (rat) (UniProt P15127)
Test: cell-based or functional assay

Sequence of insulin receptor of isolated rat adipocytes (rat) (P15127 27-1383): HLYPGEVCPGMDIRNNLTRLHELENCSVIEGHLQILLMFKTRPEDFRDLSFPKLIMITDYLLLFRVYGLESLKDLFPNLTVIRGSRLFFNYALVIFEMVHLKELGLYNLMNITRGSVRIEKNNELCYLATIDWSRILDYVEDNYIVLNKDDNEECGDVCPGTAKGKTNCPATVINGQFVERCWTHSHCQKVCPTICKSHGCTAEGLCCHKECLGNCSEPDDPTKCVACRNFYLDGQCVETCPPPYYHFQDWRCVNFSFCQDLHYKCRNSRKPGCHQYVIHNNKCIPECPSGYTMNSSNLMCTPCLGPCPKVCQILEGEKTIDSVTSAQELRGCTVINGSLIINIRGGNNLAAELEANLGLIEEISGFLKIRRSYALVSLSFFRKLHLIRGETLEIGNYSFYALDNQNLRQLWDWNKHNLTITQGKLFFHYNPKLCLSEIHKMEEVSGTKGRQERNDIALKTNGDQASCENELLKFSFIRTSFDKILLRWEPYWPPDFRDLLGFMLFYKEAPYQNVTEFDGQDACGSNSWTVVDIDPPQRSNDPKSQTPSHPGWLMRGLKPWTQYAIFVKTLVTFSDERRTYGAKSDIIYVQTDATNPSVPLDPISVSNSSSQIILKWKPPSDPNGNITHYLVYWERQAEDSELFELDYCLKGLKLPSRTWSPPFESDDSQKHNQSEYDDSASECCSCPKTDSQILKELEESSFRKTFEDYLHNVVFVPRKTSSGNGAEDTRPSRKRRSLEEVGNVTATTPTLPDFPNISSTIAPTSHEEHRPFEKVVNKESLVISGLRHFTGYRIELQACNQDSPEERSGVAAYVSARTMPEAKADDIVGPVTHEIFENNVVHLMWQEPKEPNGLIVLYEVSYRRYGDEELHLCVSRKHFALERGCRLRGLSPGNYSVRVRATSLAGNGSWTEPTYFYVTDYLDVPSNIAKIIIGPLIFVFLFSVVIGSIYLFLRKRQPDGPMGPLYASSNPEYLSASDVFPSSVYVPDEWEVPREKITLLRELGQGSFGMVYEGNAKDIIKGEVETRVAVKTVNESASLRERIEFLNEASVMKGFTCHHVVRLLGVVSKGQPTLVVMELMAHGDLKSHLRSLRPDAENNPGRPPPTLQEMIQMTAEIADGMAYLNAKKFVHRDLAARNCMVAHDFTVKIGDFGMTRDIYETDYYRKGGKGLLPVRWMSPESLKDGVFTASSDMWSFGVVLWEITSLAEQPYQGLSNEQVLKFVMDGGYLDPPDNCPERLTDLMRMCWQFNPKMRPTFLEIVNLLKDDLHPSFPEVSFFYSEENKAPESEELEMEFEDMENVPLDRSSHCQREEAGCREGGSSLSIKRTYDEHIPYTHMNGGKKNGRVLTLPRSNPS

Row | Lipogenesis in rat adipocytes [Potency (%)] Mean Value (% of human insulin) | Substance
1 | 5.44 | (A14E, A21G, A22(GQEP)19, 98K^, A99P, B25H, B29R, desB30 human insulin)/(226A, 227G, 228P, 234A, 235K, des447 hIgG4-Fc(228-447)) 3,5-bis[(2-acetyl)amino]benzoyl conjugate (from UniProt P01861 109-325)
2 | 0.87 | A14E, B(-78K^), B(-77P), B(-1)(GQAP)19, B25H, B29R, desB30 human insulin/(227A, 234A, 235K, 297E, 315Q, 384Q, des447 hIgG4-Fc(228-447)) 4-[bis[2-[(2-acetyl)amino]ethyl]amino]-4-oxo-butanoyl conjugate (from UniProt P01861 108-325)

Reference: US20200261595A1
